This is an account of results in doi:10.1101/2024.11.03.621760 (bioRxiv, 2024).

The target in test [1] is prefusion MERS-CoV EMC/2012 S ectodomain trimer (MERS-CoV-2P S) (MERS-CoV EMC/2012).
Test [2] shares this target. Description: SPR.

B1: cHALC3_919_cb3 (designed binder)
chain: MSGSEELLEELRELLERLQELLELIEQGKITPEQLREAIALLIEVLQILYEALRELAEQLQRLREELGGSGSPVKRFVREVLEEAEEAYEKGDRRQFEELLWLAEWAARDANDEELEEEIREFEKEVKGS
Regarding B1, in test [1], the Table S6, cHALC3 919: neutralisation IC50, EMC/2012 S VSV pseudovirus, exp 1 turned out to be 15.3 nM and the Table S6, cHALC3 919: neutralisation IC50, EMC/2012 S VSV pseudovirus, exp 2 turned out to be 5 nM.

B2: nHALC3_919_cb3 (designed binder)
chain: MSGSPVKRFVREVLEEAEEAYEKGDRRQFEELLWLAEWAARDANDEELEEEIREFEKEVKGSGSEELLEELRELLERLQELLELIEQGKITPEQLREAIALLIEVLQILYEALRELAEQLQRLREELGGS
One may read the Kd as the equilibrium constant for the complex coming apart. High values mean lower affinity, low ones higher affinity. As a reminder, the koff is a measure of how fast the partners let go of each other. Read a high koff as fast dissociation. What is called kon is the rate constant with which the complex forms. Read a low kon as slower complex formation. In test [2], B2 yielded a dissociation constant (Kd) of 0.11 nM, an off-rate (koff) of 6e-05 s⁻¹ and an association rate constant (kon) of 560000 M⁻¹ s⁻¹. In test [1], this molecule had a Table S6, nHALC3 919: neutralisation IC50, EMC/2012 S VSV pseudovirus, exp 1 of 5.9 nM and a Table S6, nHALC3 919: neutralisation IC50, EMC/2012 S VSV pseudovirus, exp 2 of 1.7 nM.
